The results in this text go back to patent US20220356230A1 (published 2022).

Experiment [1] deals with Human SARS Coronavirus Spike S1 Subunit Protein (His Tag) (Sino 40150-V08B1) (Human SARS Coronavirus, UniProt P59594 14-667). Description: Luminex bead binding, antigen on microspheres, antibody supernatant.
In experiment [2] the target is T1, MERS-CoV (SARS-CoV-2) Spike Protein (ECD, aa 1-1297, His Tag) (Sino 40069-[change]) (MERS-CoV, UniProt K9N5Q8 18-1297).
T1 sequence: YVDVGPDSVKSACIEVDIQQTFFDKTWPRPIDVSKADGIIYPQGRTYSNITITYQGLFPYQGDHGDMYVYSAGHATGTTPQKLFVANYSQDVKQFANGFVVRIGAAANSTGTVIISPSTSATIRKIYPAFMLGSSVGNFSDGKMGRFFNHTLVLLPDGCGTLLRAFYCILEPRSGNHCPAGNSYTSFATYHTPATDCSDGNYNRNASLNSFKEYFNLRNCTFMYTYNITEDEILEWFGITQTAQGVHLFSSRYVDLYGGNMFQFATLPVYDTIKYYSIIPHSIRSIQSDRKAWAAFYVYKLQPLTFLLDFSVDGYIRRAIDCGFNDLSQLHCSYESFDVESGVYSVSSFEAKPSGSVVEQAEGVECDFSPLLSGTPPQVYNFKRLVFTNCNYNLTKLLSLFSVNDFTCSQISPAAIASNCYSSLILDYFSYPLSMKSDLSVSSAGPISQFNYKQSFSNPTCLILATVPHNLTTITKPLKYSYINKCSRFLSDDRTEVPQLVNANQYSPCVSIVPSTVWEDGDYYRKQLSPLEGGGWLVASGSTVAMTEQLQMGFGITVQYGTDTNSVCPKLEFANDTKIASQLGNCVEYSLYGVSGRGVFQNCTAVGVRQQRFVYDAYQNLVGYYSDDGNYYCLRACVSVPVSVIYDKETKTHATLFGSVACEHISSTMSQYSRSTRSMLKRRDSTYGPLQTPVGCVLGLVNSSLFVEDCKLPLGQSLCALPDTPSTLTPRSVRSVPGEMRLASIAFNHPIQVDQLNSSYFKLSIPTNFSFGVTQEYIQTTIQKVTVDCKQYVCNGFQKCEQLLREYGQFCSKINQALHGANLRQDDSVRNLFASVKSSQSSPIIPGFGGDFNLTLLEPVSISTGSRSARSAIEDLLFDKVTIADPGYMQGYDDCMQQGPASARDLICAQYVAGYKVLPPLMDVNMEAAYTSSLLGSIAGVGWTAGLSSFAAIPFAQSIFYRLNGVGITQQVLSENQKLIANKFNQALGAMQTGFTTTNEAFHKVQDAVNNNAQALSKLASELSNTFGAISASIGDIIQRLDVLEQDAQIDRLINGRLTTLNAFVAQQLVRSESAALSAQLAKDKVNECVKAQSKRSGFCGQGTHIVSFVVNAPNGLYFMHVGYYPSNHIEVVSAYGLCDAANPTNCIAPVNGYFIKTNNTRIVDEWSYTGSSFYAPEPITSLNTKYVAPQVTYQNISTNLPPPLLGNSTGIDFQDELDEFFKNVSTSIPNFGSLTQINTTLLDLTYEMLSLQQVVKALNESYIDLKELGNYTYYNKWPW
The description is as above.

Experiment [3] addresses T2, MERS-CoV (SARS-CoV-2) Spike Protein S2 (aa 726-1296, His Tag) (Sino 40070-[change]) (MERS-CoV, UniProt K9N5Q8 726-1296).
T2 sequence: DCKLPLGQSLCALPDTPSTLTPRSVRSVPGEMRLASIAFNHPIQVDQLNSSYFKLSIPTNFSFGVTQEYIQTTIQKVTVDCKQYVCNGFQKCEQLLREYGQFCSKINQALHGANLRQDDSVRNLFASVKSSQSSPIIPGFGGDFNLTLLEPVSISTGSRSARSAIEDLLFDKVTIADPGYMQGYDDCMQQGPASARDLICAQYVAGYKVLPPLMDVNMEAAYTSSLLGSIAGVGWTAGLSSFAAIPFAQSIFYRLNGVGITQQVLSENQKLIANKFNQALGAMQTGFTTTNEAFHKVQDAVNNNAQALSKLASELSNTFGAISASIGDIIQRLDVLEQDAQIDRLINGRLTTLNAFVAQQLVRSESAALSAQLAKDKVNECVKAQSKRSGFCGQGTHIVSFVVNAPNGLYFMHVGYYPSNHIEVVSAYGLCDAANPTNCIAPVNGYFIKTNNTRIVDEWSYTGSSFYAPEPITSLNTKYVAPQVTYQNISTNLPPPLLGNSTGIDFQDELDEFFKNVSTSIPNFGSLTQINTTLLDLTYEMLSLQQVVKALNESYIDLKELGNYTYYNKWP
The experiment is described as above.

In experiment [4] the target is T3, MERS-CoV (SARS-CoV-2) Spike Protein S2 (aa 726-1296, His Tag) (Sino 40070-[change]) (MERS-CoV, UniProt K9N5Q8 726-1296).
T3 sequence: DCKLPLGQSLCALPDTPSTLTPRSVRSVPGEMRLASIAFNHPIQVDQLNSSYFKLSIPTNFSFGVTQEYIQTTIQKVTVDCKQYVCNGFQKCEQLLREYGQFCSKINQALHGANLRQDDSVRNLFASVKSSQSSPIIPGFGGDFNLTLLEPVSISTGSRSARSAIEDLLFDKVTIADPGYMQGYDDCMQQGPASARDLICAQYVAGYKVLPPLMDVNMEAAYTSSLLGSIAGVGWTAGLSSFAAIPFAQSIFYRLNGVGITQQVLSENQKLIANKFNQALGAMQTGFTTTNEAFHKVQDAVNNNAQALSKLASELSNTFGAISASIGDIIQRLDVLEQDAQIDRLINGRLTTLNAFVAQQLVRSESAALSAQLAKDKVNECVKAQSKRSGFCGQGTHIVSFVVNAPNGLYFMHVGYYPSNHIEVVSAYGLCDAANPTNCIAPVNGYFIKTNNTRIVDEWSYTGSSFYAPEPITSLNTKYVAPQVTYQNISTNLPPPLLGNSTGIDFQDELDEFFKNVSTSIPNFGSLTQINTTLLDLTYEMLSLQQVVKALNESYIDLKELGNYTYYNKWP
Kind of experiment: Luminex bead assay, supernatant on antigen microspheres.

For experiment [5], the target named is T4, MERS-CoV (SARS-CoV-2) Spike Protein (ECD, aa 1-1297, His Tag) (Sino 40069-[change]) (MERS-CoV, UniProt K9N5Q8 18-1297).
T4 sequence: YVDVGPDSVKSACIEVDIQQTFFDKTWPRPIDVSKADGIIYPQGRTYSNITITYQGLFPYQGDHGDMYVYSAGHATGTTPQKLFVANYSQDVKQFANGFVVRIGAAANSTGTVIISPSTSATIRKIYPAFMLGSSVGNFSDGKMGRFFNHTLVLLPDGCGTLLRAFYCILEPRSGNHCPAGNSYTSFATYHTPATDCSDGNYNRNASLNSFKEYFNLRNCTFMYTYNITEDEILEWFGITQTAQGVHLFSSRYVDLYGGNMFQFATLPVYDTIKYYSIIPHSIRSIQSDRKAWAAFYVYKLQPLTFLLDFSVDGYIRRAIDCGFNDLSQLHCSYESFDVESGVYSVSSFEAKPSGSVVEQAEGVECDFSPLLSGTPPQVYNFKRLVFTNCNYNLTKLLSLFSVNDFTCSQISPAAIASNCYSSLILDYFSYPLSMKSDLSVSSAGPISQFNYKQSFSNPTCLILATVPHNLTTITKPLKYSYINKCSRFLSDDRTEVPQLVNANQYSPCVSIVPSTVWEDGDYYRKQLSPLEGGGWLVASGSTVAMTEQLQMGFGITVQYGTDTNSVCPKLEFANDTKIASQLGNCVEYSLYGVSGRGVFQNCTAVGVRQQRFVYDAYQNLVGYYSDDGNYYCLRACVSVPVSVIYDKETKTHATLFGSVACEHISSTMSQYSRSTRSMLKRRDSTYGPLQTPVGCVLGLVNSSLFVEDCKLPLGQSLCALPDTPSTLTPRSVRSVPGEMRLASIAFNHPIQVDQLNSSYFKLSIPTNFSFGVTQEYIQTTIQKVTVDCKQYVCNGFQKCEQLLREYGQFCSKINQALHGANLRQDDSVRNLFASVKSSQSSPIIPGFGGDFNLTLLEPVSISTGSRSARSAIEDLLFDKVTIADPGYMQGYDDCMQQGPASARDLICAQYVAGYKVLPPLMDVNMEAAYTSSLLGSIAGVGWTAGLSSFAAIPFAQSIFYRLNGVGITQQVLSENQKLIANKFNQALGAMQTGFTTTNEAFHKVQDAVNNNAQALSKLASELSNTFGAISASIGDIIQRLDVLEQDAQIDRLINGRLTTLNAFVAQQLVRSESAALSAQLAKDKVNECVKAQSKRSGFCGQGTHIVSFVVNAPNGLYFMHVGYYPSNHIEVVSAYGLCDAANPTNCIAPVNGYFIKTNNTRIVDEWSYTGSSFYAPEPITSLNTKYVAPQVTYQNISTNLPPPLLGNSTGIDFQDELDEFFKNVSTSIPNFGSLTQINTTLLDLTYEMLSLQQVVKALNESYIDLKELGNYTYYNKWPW
The description is as above.

B1: mAb10956 (antibody, V domains shown)
VH: EVQLVESGGGLVQPGGSLRLSCAASGLTVSSNYMSWVRQAPGKGLEWVSVIYSGGSTFYADSVKGRFTISRDNSKNTLYLQMNSLRAEDTAVYYCARDLIKYGMDVWGQGTTVTVSS
VL: not shown
In the case of B1, the MFI in experiment [1] worked out at 16 MFI; in experiment [2], 15 MFI; in experiment [3] it was 16 MFI.

B2: mAb10957 (antibody, V domains shown)
VH: EVQLVESGGGLVQPGGSLRLSCAASGVTVSSNYMSWVRQAPGKGLEWVSVIYSGGSTFYADSVKGRFTISRDNSKNTLFLQMNSLRIEDTAVYYCARDLGPYGMDVWGQGTTVTVSS
VL: DIQLTQSPSFLSASVGDRVTITCRASQGISSYLAWYQQKPGKAPKLLIYAASTLQSGVPSRFSGSGSGTQFILTISSLQPEDFATYYCQQLNSYPGFTFGPGTKVDIKR
In the case of B2, the MFI in experiment [1] is 16 MFI; in experiment [2], 15 MFI; in experiment [3], 18 MFI.

B3: mAb10969 (antibody, V domains shown)
VH: QVQLVESGGGVVQPGRSLRLSCAASGFTFSSYAMHWVRQAPGKGLEWVAVISYDGSNKYYADSVKGRFTISRDNSKNTLYLQMNSLRAEDTAVYYCARDGRTITMVRGVIDDAFDIWGQGTMVTVSS
VL: not shown
For the molecule B3, the MFI was 20 MFI in experiment [1], 16 MFI in experiment [2] and 20 MFI in experiment [3].

B4: mAb10970 (antibody, V domains shown)
VH: EVQLVESGGGLVQPGGSLRLSCAASGFTVSSNYMSWVRQAPGKGLEWVSVIYSGGSTYYADSVKGRFTISRDNSKNTLYLQMNRLRADDTAVYYCVRDPVGRYYYGMDVWGQGTTVTVSS
VL: not shown
In the case of B4, the MFI in experiment [2] was found to be 14 MFI; in experiment [3], 16 MFI.

B5: mAb10915 (antibody, V domains shown)
VH: EVQLVESGGGLVQPGGSLRLSCAASGFTVSSNYMNWVRQAPGKGLEWVSVIYSGGSTFYADSVKGRFTISRHNSKNTLYLQMNSLRPEDTAVYYCARDLGGYFDYWGQGTLVTVSS
VL: not shown
As to B5, the “Binding signal (MFI)” value in experiment [4] was found to be 23 MFI.

B6: mAb10913 (antibody, V domains shown)
VH: EVQLVESGGGLVQPGGSLRLSCAASGFTFRNYEMNWVRQAPGKGLEWVSYITSSGSTMYYADSVKGRFTISRDNAKNSLYLQMNSLRAEDTAVYYCARDGFYYYYAMDVWGQGTTVTVSS
VL: QSVLTQPPSVSAAPGQKVTISCSGSSSNIGNNYVSWYQQLPGTAPKLLIYDNNKRPSGIPDRFSGSKSGTSATLGITGLQTGDEADYYCGTWDSSLSVGRVFGTGTKVTVLG
In the case of B6, the entries for the “Binding signal (MFI)” value in experiment [4] and in experiment [5] were 26 MFI and 20 MFI, respectively.

B7: mAb10987 (antibody, V domains shown)
VH: QVQLVESGGGVVQPGRSLRLSCAASGFTFSNYAMYWVRQAPGKGLEWVAVISYDGSNKYYADSVKGRFTISRDNSKNTLYLQMNSLRTEDTAVYYCASGSDYGDYLLVYWGQGTLVTVSS
VL: QSALTQPASVSGSPGQSITISCTGTSSDVGGYNYVSWYQQHPGKAPKLMIYDVSKRPSGVSNRFSGSKSGNTASLTISGLQSEDEADYYCNSLTSISTWVFGGGTKLTVLG
In the case of B7, the values for the MFI in experiment [2] and in experiment [3] were 15 MFI and 23 MFI, respectively.
